Measurements: patent US20230218738A1 (Pfizer, published 2023)

T1: RSV F protein mutant pXCS882 (RSV A2, UniProt P03420 26-109)
T1 chain 1: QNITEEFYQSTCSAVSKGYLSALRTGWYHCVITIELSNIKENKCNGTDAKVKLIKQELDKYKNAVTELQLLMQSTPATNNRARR
T1 chain 2: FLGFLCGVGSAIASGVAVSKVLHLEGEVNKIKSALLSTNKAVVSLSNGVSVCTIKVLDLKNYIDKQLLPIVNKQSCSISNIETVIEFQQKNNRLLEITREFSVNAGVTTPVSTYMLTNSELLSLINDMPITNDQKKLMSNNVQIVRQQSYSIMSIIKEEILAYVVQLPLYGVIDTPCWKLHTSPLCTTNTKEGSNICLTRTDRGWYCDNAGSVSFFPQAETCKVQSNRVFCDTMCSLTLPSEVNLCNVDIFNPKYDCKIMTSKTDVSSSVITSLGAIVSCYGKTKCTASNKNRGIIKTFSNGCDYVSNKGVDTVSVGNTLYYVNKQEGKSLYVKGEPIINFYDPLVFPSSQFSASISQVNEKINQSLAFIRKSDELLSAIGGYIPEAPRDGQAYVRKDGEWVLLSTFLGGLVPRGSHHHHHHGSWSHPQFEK

T2: RSV F protein mutant pXCS881 (RSV A2, UniProt P03420 26-109)
T2 chain 1: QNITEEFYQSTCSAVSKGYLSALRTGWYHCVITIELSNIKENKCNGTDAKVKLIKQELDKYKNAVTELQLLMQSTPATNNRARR
T2 chain 2: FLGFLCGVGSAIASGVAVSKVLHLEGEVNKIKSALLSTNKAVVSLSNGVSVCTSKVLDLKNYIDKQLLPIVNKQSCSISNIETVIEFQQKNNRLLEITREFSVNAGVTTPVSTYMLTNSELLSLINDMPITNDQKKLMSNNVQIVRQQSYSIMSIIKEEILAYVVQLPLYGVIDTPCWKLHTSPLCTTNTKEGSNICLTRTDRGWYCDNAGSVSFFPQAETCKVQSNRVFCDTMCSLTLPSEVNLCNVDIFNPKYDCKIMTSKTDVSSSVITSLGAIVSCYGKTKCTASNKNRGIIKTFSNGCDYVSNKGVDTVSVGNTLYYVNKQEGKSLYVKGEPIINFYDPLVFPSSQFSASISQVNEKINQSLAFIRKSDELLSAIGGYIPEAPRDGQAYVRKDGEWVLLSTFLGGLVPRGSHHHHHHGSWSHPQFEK

T3: RSV F protein mutant pXCS892 (RSV A2, UniProt P03420 26-109)
T3 chain 1: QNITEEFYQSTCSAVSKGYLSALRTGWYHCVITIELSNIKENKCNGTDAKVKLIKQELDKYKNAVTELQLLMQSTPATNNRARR
T3 chain 2: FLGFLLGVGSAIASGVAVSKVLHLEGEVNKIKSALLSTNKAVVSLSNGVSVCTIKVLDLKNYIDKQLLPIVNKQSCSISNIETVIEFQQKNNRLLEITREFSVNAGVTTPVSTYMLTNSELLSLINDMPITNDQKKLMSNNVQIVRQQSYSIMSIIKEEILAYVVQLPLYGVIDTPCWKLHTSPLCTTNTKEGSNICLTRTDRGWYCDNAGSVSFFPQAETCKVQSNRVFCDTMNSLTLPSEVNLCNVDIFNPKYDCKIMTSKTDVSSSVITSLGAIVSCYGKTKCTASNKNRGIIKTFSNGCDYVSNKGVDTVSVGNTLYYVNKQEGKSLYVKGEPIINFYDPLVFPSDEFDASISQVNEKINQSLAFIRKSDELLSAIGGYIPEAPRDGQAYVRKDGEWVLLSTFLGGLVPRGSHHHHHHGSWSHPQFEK

T4: RSV F protein mutant pXCS752 (RSV A2, UniProt P03420 26-109)
T4 chain 1: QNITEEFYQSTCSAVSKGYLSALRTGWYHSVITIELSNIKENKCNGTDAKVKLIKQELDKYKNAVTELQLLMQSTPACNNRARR
T4 chain 2: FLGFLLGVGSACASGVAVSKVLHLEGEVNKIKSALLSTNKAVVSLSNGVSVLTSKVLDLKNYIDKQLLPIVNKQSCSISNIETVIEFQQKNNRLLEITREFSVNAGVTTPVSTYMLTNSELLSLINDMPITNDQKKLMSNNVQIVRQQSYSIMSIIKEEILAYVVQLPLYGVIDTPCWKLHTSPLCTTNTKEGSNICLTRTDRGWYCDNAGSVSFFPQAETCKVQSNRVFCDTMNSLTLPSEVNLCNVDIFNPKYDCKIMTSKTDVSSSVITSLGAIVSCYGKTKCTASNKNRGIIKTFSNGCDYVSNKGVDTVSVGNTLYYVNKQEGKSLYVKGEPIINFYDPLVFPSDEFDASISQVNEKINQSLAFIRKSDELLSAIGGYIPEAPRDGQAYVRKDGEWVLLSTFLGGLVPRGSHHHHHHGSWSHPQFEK

T5: RSV F protein mutant pXCS830 (RSV A2, UniProt P03420 26-109)
T5 chain 1: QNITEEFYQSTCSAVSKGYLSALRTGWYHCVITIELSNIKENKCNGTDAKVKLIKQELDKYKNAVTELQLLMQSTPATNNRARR
T5 chain 2: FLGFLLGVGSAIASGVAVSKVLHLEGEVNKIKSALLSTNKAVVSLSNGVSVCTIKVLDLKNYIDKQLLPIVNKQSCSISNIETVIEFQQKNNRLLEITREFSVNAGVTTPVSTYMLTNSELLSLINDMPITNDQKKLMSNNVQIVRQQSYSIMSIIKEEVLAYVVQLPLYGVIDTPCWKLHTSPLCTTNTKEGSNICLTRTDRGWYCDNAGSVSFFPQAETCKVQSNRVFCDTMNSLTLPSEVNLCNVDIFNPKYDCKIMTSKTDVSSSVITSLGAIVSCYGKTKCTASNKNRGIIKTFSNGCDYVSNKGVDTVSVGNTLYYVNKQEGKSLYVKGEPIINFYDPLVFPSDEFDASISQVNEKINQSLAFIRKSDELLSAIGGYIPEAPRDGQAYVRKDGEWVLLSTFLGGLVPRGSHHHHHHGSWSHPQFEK

B1: MPE8 (antibody, V domains shown)
VH: EVQLVESGGGLVKPGGSLRLSCAASGFTFSSYSMNWVRQAPGKGLEWVSSISASSSYSDYADSAKGRFTISRDNAKTSLFLQMNSLRAEDTAIYFCARARATGYSSITPYFDIWGQGTLVTVSS
VL: QSVVTQTPSVSGAPGQRVTISCTGSSSNIGAGYDVHWYQQLPGTAPKLLIYDNNNRPSGVPDRFSASKSGTSASLAITGLQAEDEADYYCQSYDRNLSGVFGTGTKVTVL
notes: also called MPEG
B2: AM22 (antibody, V domains shown)
VH: QVQLVQSGAEVKKPGATVKVSCKISGHTLIKLSIHWVRQAPGKGLEWMGGYEGEVDEIFYAQKFQHRLTVIADTATDTVYMELGRLTSDDTAVYFCGTLGVTVTEAGLGIDDYWGQGTLVTVSS
VL: EIVLTQSPGTLSLSPGERATLSCRASQIVSRNHLAWYQQKPGQAPRLLIFGASSRATGIPVRFSGSGSGTDFTLTINGLAPEDFAVYYCLSSDSSIFTFGPGTKVDFK

Key:
Assay in all cases: BLI (Octet), F on anti-HIS tip, 20 nM mAb
[1] = molecular target: RSV F protein mutant pXCS760 (RSV A2, UniProt P03420 26-109)
[2] = molecular target: T1, RSV F protein mutant pXCS882
[3] = molecular target: RSV F protein mutant pXCS782 (RSV A2, UniProt P03420 26-109)
[4] = molecular target: T2, RSV F protein mutant pXCS881
[5] = molecular target: RSV F protein mutant pXCS850 (RSV A2, UniProt P03420 26-109)
[6] = molecular target: T3, RSV F protein mutant pXCS892
[7] = molecular target: T4, RSV F protein mutant pXCS752
[8] = molecular target: RSV F protein mutant pXCS779 (RSV A2, UniProt P03420 26-109)
[9] = molecular target: T5, RSV F protein mutant pXCS830

Binder	Response (nm shift) [1] [nm]	Response (nm shift) [2] [nm]	Response (nm shift) [3] [nm]	Response (nm shift) [4] [nm]	Response (nm shift) [5] [nm]	Response (nm shift) [6] [nm]	Response (nm shift) [7] [nm]	Response (nm shift) [8] [nm]	Response (nm shift) [9] [nm]
B1	0.151	0.691	0.513	0.763	1.04	1.03	0.703	0.232	0.923
B2	0.121	0.219	0.222	0.178	0.517	0.542	0.234	0.125	0.465
